Measured values published in the supplement of paper PMC12764529.
± gives the half width of the 95% confidence interval.

Columns and labels:
[1] = folding stability dG unfold from trypsin proteolysis; higher = more stable
Method in brief: (§1)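 Digests were run with trypsin and chymotrypsin at 11 concentrations in threefold dilutions, plus a no-protease condition, on designed mini-proteins in a PA-tagged cDNA display construct. The mini-proteins were under 80 residues, had no cysteine, and were kept only when AlphaFold2 dimer inter-PAE was above 15. After sequencing, Bayesian fitting of the counts gave K50, from which unfolding free energy was derived against a sequence-predicted unfolded-state K50 and a shared folded-state K50, per protease or combined.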

[2] = folding stability dG unfold from chymotrypsin proteolysis; higher = more stable
Method in brief: as §1

[3] = folding stability dG unfold (combined trypsin and chymotrypsin); higher = more stable
Method in brief: as §1

Row | Sequence | folding stability dG unfold [1] | folding stability dG unfold [2] | folding stability dG unfold [3]
1 | SAGGSMTMTVEIHYPDGTVETRTVPYAPDDPAAAIAAVKAEVEARGGEVLAVETRDGVVTVKALVPPSAGGS [r16_662_JUSTAS] | 2.4 ± 0.07 kcal/mol | 3.01 ± 0.086 kcal/mol | 2.72 ± 0.095 kcal/mol
2 | SAGGSMTTITLTLEFELDENGEVDPEKIEAEAEKIKEENPEIKELTVEVKRDPNSNKITVTVTAKVPSAGGS [r8_258_JUSTAS] | 2.79 ± 0.2 kcal/mol | 3.29 ± 0.19 kcal/mol | 3.06 ± 0.18 kcal/mol
3 | SAGGSMTVVIVKLRPPDSPEVLYLPFRGRLPNGDWVPISLEELLEALEALPDLEVEEIIVAPPEEISAGGSA [r2_192_TrMRF] | 1.73 ± 0.16 kcal/mol | 1.74 ± 0.087 kcal/mol | 1.7 ± 0.23 kcal/mol
4 | SAGGSMVIEAEIEFPDMTPEEVEERAEEIAEAAAEFARKKGFPIKKVEADVEVFPGEGVVKVTVTLEGSAGG [r13_212_TrMRF] | 0.612 ± 0.043 kcal/mol | 0.204 ± 0.2 kcal/mol | 0.611 ± 0.11 kcal/mol
5 | SAGGSMVIRVETPEEAEEAARELAERLRELFPEVKELEIKVKVEVVDEETGEEKEYEFTIKLKLPPSAGGSA [r2_393_TrROS_Hall] | 2.54 ± 0.12 kcal/mol | 2.62 ± 0.098 kcal/mol | 2.62 ± 0.24 kcal/mol
6 | SAGGSMVITITFPDGSTVTIPEEELLELLKKYGIEPDESDKEKVAKEAAKIIGEEKGIPIKEVKINSAGGSA [r2_83_JUSTAS] | 1.54 ± 0.059 kcal/mol | 3.43 ± 0.092 kcal/mol | 3.01 ± 0.066 kcal/mol
7 | SAGGSMVKEIEIPVPEDWTPEDAVEAAREYLEANPELENVIVRFTLPDGTPLVVEIKPGGKIVKVTPESAGG [r13_690_JUSTAS] | 1.71 ± 0.069 kcal/mol | 3.26 ± 0.07 kcal/mol | 2.83 ± 0.15 kcal/mol
8 | SAGGSMVRVTIEDKDGKEHWIMIPPGMDPNDVKQQIKKFLEDNGWKVKDVEVETYPPGWAMIRVRVSAGGSA [r2_148_TrROS] | 1.88 ± 0.021 kcal/mol | 2.33 ± 0.031 kcal/mol | 2.2 ± 0.052 kcal/mol
9 | SAGGSMVSEEEIKEIVEKTAAELPEDAVEPVTVTIELPNPDGTTTVLTITITRSPTSISYTVSSSPAASAGG [r19_220_JUSTAS] | 3.56 ± 0.11 kcal/mol | 3.27 ± 0.048 kcal/mol | 3.34 ± 0.039 kcal/mol
10 | SAGGSMVVTETLVETLTETLTFPDGTPVTVTVPVTVTVEVYLPEPPAPPPLPFSRLAEELGDPALVSAGGSA [r2_340_JUSTAS] | -0.838 ± 0.26 kcal/mol | -0.661 ± 0.43 kcal/mol | -0.623 ± 0.15 kcal/mol
11 | SAGGSNPNMFRLKVEIEPYEYRDPDGQPKARVWKIDIEMEPGMPPNMAKNIASNFQNRGLPVKIEPSAGGSA [r2_456_TrROS] | 0.102 ± 0.18 kcal/mol | 0.689 ± 0.12 kcal/mol | 0.578 ± 0.16 kcal/mol
12 | SAGGSPARPVLVTITLPDGEEVTRRMTLEEIERLVAKDPNVKVTIELPDGSVYTVDPNTGTITKAPSAGGSA [r2_222_JUSTAS] | 2.84 ± 0.075 kcal/mol | 2.49 ± 0.026 kcal/mol | 2.63 ± 0.14 kcal/mol
13 | SAGGSPATVLSSSTLSTTPLPDGTTLTTSETVTLLPNGEPVVTTTTTTTAPDGSVTTTTTTTPLDAASAGGS [r16_261_JUSTAS] | 1.05 ± 0.043 kcal/mol | 0.671 ± 0.043 kcal/mol | 0.885 ± 0.047 kcal/mol
14 | SAGGSPDIKFNEVKVELPTAETEAEFEKNTYKVEVPAPPELDITTTTTLTTSSGSTTTTTSTSPLELPSAGG [r13_191_JUSTAS] | 0.0505 ± 0.06 kcal/mol | -1.11 ± 0.79 kcal/mol | -0.304 ± 0.11 kcal/mol
15 | SAGGSPEVKIEIEVTERVTVFDENGKPVEEVLVVKAKITFPDGTTATITAFFYEGKWFITSIELEPSAGGSA [r2_158_TrROS_Hall] | 3.84 ± 0.25 kcal/mol | 4.83 ± 0.24 kcal/mol | 4.62 ± 0.27 kcal/mol
16 | SAGGSPEVKVLLFYDPATGERVVVVVTYDPATGEKKVLVFVESRPELVELVKKLLEDLGYEVEVVPSAGGSA [r2_30_TrMRF] | 3.39 ± 0.19 kcal/mol | 3.82 ± 0.16 kcal/mol | 3.63 ± 0.11 kcal/mol
17 | SAGGSPGQPYYIMIKLEWENPEDGEEHTFDIMFPVKSAEDAKDYILKELLPPGHKLKIDDISIMPMSAGGSA [r2_320_TrROS] | 1.48 ± 0.022 kcal/mol | 1.19 ± 0.1 kcal/mol | 1.4 ± 0.15 kcal/mol
18 | SAGGSPGSSLIGKKKLTIKVDNKDVEVEVTTSLSFLPSNQVTTSTEVKITLPNGKKIPKSLVEKLLSAGGSA [r2_363_JUSTAS] | 0.711 ± 0.044 kcal/mol | 0.66 ± 0.17 kcal/mol | 0.742 ± 0.12 kcal/mol
